Earlier results, collected in paper PMC4346141.

What was measured:
[1] = molecular target: IL12Rβ1 clone 2 (Mus musculus) (UniProt Q60837)
[2] = molecular target: IL12Rβ1 clone 3 (Mus musculus) (UniProt Q60837)
[3] = molecular target: IL12Rβ1 (Homo sapiens) (UniProt P42701)
[4] = molecular target: IL12Rβ1 monomer (Homo sapiens) (UniProt P42701)
[5] = molecular target: IL12Rβ2 (Homo sapiens) (UniProt Q99665)
Chain of IL12Rβ2 (Homo sapiens) (Q99665 24-622): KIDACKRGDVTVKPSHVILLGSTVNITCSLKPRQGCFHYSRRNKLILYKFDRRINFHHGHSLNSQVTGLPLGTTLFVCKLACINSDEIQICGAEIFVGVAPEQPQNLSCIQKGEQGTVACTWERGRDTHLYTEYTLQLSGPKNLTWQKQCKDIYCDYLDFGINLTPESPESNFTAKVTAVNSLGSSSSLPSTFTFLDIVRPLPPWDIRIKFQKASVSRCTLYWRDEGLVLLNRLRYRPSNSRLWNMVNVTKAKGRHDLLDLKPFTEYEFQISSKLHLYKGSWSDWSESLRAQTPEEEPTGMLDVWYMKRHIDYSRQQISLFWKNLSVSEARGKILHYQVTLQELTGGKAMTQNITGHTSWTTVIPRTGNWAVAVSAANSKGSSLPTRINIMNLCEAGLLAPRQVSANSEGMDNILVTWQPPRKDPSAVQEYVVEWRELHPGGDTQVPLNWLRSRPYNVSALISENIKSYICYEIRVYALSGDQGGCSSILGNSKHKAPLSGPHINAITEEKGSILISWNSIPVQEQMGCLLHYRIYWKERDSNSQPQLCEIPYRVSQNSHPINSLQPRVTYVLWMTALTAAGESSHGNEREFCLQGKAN

Chain of IL12 (P29459 23-219): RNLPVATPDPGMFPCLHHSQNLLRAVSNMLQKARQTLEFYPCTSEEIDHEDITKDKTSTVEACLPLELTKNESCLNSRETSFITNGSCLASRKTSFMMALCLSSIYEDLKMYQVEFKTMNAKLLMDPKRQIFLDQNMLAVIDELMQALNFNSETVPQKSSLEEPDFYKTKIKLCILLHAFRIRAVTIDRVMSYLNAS
Chain of IL12 (P29460 23-328, further chain): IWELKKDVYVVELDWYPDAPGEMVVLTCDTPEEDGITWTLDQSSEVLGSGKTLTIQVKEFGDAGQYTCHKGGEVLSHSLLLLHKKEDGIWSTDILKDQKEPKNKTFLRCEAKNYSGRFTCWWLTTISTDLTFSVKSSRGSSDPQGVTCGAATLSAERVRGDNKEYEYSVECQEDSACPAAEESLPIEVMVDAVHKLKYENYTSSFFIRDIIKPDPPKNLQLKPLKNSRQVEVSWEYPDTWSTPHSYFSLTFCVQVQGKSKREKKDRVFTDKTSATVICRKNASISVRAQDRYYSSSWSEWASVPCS
Chain of IL12Rβ1 clone 3 (Mus musculus) (Q60837 20-565): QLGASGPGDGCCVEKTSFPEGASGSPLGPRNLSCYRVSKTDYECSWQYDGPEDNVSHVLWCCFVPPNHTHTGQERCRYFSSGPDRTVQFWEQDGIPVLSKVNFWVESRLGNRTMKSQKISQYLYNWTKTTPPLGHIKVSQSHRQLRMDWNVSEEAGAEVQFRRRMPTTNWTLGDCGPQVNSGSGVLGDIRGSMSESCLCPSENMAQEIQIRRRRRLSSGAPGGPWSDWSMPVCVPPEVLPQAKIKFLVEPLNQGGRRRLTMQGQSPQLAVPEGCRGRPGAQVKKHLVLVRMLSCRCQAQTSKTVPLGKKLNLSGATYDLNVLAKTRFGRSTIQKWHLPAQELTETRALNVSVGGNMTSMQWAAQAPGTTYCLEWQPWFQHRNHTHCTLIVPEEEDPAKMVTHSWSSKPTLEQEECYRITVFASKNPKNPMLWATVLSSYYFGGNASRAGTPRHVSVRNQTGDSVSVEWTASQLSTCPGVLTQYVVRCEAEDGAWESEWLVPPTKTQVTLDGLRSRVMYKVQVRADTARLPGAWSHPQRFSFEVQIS
Chain of IL12Rβ1 clone 2 (Mus musculus) (Q60837 20-565): as above

Row | Substance | Kd [1] [nM] | Kd [2] [nM] | Kd [3] [nM] | Kd [4] [nM] | Kd [5] [nM]
1 | IL12 (from UniProt P43431) | 0.899 | 1.3 |  |  | 
2 | IL12 (from UniProt P29459) |  |  | 3 | > 50 | 5
